One experiment deals with RPL3 (UniProt P39023). Kind of experiment: co-IP, anti-FLAG, C-FLAG B3GNT2 cell lysate, mass spectrometry.
In a further experiment the target is HNRNPU (UniProt Q00839). The description is as above.
The target in the next experiment is SRSF1 (UniProt Q07955). The description is as above.
Experiment [1] has as its target CASC3 (human) (UniProt O15234). The experiment in a line: co-IP with mouse anti-FLAG from lysate of cells overexpressing N-FLAG B3GNT2, then mass spectrometry.
Another experiment addresses RRP12 (human) (UniProt Q5JTH9). The experiment in a line: co-IP with control IgG, mass spectrometry; lysate of cells with C-FLAG B3GNT2.
In the next experiment the target is PSMD4 (human) (UniProt P55036). Described as above.
A further experiment concerns the target NPM1 (human) (UniProt P06748). Described as above.
For another experiment, the target named is MYO1C (human) (UniProt O00159). The description is as above.
The target in the next experiment is SLC25A5 (human) (UniProt P05141). The description is as above.
In a further experiment the target is RPL26 (human) (UniProt P61254). The description is as above.
The target in a further experiment is RPS4X (human) (UniProt P62701). The experiment is described as above.
Another experiment deals with MARS (human) (UniProt P56192). The description is as above.
In a further experiment the target is EPRS (human) (UniProt P07814). The description is as above.
EPRS (human), sequence (P07814 whole entry): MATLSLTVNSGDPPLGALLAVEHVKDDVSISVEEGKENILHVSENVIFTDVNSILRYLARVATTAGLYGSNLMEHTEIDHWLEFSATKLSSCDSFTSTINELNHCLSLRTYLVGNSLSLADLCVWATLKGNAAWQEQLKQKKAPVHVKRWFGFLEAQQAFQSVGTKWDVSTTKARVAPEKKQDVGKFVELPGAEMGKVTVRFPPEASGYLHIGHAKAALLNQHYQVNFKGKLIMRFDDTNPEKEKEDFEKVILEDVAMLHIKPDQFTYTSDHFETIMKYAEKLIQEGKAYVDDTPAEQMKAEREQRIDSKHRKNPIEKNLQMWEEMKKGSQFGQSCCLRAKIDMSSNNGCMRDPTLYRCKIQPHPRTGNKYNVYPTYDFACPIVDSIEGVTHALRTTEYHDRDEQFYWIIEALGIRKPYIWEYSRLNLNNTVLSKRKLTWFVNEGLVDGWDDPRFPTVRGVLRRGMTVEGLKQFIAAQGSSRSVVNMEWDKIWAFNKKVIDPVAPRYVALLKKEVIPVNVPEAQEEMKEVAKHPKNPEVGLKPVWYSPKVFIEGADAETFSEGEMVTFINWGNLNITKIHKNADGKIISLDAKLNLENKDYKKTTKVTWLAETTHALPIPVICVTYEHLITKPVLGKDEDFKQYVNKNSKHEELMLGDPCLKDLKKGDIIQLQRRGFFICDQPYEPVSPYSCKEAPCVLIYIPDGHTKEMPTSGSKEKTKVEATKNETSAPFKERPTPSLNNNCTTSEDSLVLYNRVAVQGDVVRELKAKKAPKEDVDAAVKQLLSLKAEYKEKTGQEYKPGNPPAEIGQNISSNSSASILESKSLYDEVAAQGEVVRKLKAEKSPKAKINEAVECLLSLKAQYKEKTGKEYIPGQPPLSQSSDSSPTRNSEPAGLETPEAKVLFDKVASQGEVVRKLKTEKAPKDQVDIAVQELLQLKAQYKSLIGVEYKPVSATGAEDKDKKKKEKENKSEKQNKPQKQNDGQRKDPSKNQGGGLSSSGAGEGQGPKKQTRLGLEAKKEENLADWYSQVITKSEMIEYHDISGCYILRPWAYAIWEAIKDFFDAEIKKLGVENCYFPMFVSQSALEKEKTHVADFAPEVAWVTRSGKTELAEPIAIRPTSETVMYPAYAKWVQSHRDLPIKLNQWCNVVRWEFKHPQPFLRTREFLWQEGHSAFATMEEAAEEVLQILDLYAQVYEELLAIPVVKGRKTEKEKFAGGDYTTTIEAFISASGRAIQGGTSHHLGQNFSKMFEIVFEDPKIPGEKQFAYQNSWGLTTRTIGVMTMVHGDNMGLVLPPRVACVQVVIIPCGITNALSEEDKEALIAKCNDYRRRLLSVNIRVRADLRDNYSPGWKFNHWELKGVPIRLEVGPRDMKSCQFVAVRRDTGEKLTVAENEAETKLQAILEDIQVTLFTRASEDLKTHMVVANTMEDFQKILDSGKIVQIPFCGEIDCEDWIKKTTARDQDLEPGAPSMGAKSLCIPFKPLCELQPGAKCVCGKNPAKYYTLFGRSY
Another experiment concerns the target ARHGEF2 (human) (UniProt Q92974). Described as above.
The target of another experiment is ILF3 (human) (UniProt Q12906). The description is as above.
In a further experiment the target is PJA2 (human) (UniProt O43164). Described as above.
In a further experiment the target is SDF4 (human) (UniProt Q9BRK5). Described as above.
The target in another experiment is EIF4A1 (human) (UniProt P60842). The experiment is described as above.
In another experiment the target is HADHA (human) (UniProt P40939). The experiment is described as above.
The target in the next experiment is SLC27A4 (human) (UniProt Q6P1M0). The description is as above.
The target in a further experiment is MAGT1 (human) (UniProt Q9H0U3). The experiment is described as above.
The next experiment deals with RPL32 (human) (UniProt P62910). The description is as above.
The target in experiment [2] is CASC3 (human) (UniProt O15234). Kind of experiment: IgG control IP from lysate of cells overexpressing C-FLAG B3GNT2, then mass spectrometry.
CASC3 (human), sequence (O15234 whole entry): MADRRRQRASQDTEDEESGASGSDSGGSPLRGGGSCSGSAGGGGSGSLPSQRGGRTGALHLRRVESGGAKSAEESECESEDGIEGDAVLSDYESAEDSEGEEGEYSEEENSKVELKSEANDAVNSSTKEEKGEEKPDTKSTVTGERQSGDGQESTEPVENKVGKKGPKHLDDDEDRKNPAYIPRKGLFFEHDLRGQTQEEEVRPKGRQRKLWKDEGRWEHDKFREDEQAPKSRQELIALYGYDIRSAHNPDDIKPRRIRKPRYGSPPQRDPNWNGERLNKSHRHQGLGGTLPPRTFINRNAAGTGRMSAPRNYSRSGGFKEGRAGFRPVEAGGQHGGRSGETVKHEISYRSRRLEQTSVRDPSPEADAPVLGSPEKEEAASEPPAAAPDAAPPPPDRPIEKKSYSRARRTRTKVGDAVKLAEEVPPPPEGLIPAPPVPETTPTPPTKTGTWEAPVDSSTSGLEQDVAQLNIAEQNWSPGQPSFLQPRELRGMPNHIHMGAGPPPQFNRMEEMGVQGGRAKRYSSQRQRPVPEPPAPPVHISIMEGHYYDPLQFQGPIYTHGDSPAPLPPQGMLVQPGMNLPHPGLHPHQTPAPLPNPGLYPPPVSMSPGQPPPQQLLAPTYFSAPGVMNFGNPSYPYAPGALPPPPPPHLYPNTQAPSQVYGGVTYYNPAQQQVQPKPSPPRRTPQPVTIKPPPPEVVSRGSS
The target of another experiment is EIF3I (human) (UniProt Q13347). The experiment is described as above.
For another experiment, the target named is VIM (human) (UniProt P08670). The experiment is described as above.
A further experiment concerns the target SRP14 (human) (UniProt P37108). The description is as above.
Another experiment deals with PABPC1 (human) (UniProt P11940). The experiment is described as above.
The target of a further experiment is CAPRIN1 (human) (UniProt Q14444). Described as above.
CAPRIN1 (human), sequence (Q14444 2-709 limits assumed): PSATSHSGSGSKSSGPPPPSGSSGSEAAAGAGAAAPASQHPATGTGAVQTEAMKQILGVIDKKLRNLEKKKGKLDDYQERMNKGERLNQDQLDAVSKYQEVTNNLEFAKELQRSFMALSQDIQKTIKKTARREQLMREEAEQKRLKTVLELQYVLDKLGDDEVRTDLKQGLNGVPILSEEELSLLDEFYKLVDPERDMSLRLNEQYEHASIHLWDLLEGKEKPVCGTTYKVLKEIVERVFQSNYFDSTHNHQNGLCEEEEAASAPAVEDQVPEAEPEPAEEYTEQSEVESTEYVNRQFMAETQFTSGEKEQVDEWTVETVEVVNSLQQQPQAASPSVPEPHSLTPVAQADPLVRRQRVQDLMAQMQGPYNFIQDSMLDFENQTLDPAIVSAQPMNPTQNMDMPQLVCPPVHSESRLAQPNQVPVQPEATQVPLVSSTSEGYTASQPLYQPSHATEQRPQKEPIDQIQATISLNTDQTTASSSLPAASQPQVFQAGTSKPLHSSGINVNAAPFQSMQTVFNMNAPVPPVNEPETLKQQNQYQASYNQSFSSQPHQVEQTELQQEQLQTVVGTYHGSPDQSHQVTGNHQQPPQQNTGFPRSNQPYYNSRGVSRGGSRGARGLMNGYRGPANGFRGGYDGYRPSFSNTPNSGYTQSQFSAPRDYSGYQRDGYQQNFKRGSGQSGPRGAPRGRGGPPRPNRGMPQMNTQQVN
For the next experiment, the target named is TIMP3 (human) (UniProt P35625). The description is as above.
A further experiment concerns the target SUPT16H (human) (UniProt Q9Y5B9). The description is as above.
The next experiment concerns the target MAGED2 (human) (UniProt Q9UNF1). Described as above.
The next experiment deals with TCP1 (human) (UniProt P17987). Described as above.
TCP1 (human), sequence (P17987 whole entry): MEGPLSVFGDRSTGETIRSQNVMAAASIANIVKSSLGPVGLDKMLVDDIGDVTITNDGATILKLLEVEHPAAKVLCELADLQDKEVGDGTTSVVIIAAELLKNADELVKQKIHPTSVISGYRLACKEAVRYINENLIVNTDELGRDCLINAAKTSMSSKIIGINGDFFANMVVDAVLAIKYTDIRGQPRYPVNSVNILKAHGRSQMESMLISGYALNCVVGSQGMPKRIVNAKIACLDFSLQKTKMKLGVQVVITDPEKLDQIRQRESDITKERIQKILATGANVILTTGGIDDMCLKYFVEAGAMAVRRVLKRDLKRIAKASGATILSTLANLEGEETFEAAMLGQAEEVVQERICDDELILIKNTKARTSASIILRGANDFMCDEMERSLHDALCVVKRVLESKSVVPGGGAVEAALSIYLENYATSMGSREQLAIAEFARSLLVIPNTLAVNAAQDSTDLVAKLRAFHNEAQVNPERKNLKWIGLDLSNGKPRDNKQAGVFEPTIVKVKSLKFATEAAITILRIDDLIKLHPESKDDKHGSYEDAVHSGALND
The next experiment deals with ANXA2 (human) (UniProt P07355). The description is as above.
For a further experiment, the target named is KHDRBS1 (human) (UniProt Q07666). Described as above.
The target of a further experiment is TAF15 (human) (UniProt Q92804). The experiment is described as above.
A further experiment has as its target CPSF6 (human) (UniProt Q16630). The experiment is described as above.
For a further experiment, the target named is TFAM (human) (UniProt Q00059). The description is as above.

HNRNPU, sequence (Q00839 2-825 limits assumed): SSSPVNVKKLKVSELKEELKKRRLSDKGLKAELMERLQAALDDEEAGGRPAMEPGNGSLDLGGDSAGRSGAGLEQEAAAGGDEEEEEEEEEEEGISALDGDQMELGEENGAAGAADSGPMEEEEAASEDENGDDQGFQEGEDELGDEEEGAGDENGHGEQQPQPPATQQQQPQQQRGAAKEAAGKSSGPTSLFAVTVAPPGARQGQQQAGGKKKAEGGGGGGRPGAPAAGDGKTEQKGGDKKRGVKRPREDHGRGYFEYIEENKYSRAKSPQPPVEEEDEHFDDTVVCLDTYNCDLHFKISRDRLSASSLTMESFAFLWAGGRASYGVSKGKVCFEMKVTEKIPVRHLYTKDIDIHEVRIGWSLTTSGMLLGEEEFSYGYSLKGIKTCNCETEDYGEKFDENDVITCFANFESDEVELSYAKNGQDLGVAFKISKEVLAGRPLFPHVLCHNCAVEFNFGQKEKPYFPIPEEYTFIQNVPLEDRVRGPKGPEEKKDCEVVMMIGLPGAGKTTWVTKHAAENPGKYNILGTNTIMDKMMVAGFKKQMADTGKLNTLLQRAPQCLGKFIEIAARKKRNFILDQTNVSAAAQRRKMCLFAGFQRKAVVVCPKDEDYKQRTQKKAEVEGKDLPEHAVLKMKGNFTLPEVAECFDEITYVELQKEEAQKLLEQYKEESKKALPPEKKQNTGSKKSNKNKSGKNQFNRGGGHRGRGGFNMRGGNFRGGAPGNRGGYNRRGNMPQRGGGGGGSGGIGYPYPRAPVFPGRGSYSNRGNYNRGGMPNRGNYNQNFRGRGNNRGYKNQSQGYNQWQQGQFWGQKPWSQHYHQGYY
CPSF6 (human), sequence (Q16630 other isoform, or with tags, fused parts or gaps limits assumed): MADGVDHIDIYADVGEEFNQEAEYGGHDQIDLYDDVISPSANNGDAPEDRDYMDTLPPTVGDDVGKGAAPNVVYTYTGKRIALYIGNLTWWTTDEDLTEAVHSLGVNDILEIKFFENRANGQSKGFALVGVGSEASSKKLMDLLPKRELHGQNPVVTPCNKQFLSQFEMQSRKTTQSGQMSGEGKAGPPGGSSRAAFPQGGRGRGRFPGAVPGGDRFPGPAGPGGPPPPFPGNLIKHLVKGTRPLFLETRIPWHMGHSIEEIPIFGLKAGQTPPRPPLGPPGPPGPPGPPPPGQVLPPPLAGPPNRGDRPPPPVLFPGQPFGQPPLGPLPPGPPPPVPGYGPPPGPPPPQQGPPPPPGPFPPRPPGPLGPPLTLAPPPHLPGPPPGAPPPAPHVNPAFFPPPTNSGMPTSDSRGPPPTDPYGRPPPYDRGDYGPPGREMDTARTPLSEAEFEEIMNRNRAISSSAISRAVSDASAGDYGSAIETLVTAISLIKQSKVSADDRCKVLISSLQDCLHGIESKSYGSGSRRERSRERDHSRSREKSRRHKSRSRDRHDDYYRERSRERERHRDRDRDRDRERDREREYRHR
SRP14 (human), sequence (P37108 2-136 limits assumed): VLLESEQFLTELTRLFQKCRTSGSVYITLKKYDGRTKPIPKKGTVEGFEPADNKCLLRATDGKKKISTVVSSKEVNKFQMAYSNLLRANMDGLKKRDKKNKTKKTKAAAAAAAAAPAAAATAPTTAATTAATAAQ

For “C-terminal FLAG tagged B3GNT2 (from UniProt Q9NY97 1-397) (enzyme)”, the figures for the co-IP mass spectrometry count with RPL3, in the experiment with HNRNPU and in the experiment with SRSF1 were 25, 12 and 9, respectively.
For “N-terminal FLAG tagged B3GNT2 (from UniProt Q9NY97 1-397) (enzyme)”, the co-IP mass spectrometry count (N-term FLAG) in the experiment with CASC3 (human) [1] amounted to 3.
Take “IgG control (Millipore Sigma 12-371) (antibody)”: the co-IP mass spectrometry count with RRP12 (human) came to 0; with PSMD4 (human), 0; in the experiment with NPM1 (human), 0; in the experiment with MYO1C (human), 0; with SLC25A5 (human), 3; with RPL26 (human), 4. The co-IP mass spectrometry count with RPS4X (human) turned out to be 7; with MARS (human) it was 0; with EPRS (human), 0; in the experiment with ARHGEF2 (human), 0; in the experiment with ILF3 (human) it was 0; with PJA2 (human), 0. In addition, the co-IP mass spectrometry count with SDF4 (human), in the experiment with EIF4A1 (human), in the experiment with HADHA (human), with SLC27A4 (human), with MAGT1 (human) and with RPL32 (human) was 0 throughout. Also, the co-IP mass spectrometry count (C-term IgG) turned out to be 0 in the experiment with CASC3 (human) [2]; 0 with EIF3I (human); 337 with VIM (human); 0 with SRP14 (human); 30 with PABPC1 (human); 6 in the experiment with CAPRIN1 (human). Besides, the co-IP mass spectrometry count (C-term IgG) was determined as 0 with TIMP3 (human); 0 with SUPT16H (human); 0 in the experiment with MAGED2 (human); 0 with TCP1 (human); 16 in the experiment with ANXA2 (human); 7 with KHDRBS1 (human). For the same substance, the values for the co-IP mass spectrometry count (C-term IgG) in the experiment with TAF15 (human), in the experiment with CPSF6 (human) and in the experiment with TFAM (human) were 4, 33 and 0, respectively.
